Results on three molecules are retold here after US20250289897A1 (Eli Lilly, published 2025).

As a reminder, the Kd is the constant that tells how readily two partners part at equilibrium. The low end stands for tighter binding, the high end for weaker binding. In general, EC50 refers to the concentration giving half of the maximal effect. A low value points to an effect from little substance.

Assay [1] has as its target T1, human FcγRIIA_131R (CD32a) extracellular domain (human, UniProt P12318 34-217).
T1 construct: extracellular domain
T1 sequence (looked up): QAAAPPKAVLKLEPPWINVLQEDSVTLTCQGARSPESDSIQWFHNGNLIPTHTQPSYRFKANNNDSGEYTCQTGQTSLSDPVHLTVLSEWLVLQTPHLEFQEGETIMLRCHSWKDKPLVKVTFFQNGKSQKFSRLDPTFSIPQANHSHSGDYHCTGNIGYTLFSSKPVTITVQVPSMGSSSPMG
In words: SPR at 25 C, antibody captured on Protein A chip.
Description: (§1) Briefly, the surfaces of all 4 flow cells were activated by injecting a 1:1 mixture of EDC/NHS for 7 minutes at 10 μL/minute. […] Un-reacted sites were blocked with a 7-minute injection of ethanolamine at 10 μL/minute. Injections of 2×10 μL of glycine pH 1.5 were used to remove any noncovalently associated protein.
(§2) For FcγRI binding, antibodies were diluted to 2.5 g/mL in running buffer (1x HBS-EP+, Teknova P/N H8022), and approximately 150 RU of each antibody was captured in flow cells 2 through 4 (RUcaptured). FC1 was the reference flow cell, therefore, no antibody was captured in FC1. […] Duplicate injections of each concentration were injected over all FCs at 40 μL/minute for 120 seconds followed by a 1200 second dissociation phase. Regeneration was performed by injecting 15 μL of 10 mM glycine pH 1.5 at 30 μL/minute over all FCs. Reference-subtracted data was collected as FC2-FC1, FC3-FC1, and FC4-FC1. The measurements were obtained at 25° C. The affinity (KD) was calculated using either steady state equilibrium analysis with the Scrubber 2 Biacore® Evaluation Software or a “1:1 (Langmuir) binding” model in BIA Evaluation.
(§3) For FcγRIIa, FcγRIIb, and FcγRIIIa binding, antibodies were diluted to 5 μg/mL in running buffer, and approximately 500 RU is captured in flow cells 2 through 4 (RUcaptured). FC1 is the reference flow cell. […] Duplicate injections of each concentration were injected over all FCs at 40 L/minute for 60 seconds followed by a 120 second dissociation phase. Regeneration was performed by injecting 15μL of 10 mM glycine pH 1.5 at 30 μL/minute over all FCs.

Assay [2] addresses T2, human FcγRIIb (CD32b) extracellular domain (human, UniProt P31994 43-217).
T2 construct: extracellular domain
T2 sequence (looked up): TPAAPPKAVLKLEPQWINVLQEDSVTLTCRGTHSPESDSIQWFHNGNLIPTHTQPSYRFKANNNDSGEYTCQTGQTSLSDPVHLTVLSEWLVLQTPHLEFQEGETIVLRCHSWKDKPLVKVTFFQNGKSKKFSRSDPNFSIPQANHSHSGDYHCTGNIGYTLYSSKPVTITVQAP
In words: SPR at 25 C, antibody captured on Protein A chip.
Description: as §1, §2, §3

The target in assay [3] is T3, human FcγRIIIA_158F (CD16a) extracellular domain (human, UniProt P08637 17-208).
T3 construct: extracellular domain
In words: SPR at 25 C, antibody captured on Protein A chip.
Description: as §1, §2, §3

Assay [4] has as its target T4, human LEPR-ECD-His (human, UniProt P48357 22-839).
T4 sequence: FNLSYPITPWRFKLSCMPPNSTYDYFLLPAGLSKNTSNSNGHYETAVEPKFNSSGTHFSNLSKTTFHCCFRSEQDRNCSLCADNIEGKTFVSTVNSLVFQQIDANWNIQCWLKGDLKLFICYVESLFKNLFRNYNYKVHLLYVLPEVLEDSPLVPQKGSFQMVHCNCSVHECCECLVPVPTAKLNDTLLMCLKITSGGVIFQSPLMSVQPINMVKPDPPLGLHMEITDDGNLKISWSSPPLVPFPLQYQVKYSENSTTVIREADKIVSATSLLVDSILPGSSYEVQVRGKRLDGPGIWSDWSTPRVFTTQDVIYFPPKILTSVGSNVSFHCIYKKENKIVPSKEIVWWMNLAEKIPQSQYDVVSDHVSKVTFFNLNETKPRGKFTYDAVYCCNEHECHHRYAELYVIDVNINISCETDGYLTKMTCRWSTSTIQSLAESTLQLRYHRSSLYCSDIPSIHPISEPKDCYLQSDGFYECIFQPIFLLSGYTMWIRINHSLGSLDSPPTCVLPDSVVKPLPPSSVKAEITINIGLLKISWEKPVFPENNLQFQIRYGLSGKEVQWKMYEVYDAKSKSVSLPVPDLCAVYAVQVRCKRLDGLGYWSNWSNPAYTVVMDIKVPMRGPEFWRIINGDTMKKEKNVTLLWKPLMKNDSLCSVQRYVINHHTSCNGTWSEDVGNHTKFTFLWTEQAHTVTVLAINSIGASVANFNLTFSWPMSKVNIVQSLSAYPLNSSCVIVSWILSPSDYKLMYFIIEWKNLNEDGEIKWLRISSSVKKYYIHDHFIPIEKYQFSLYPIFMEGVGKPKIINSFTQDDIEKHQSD
In words: SPR (Biacore T200), antibody captured on Protein A/G chip, His-tagged LEPR-ECD as analyte, 1:1 fit; mean n=3, SD 2.2E-9.
Description: (§4) His-tagged ECDs were expressed and purified for each species and used for affinity analysis. A Protein A/G chip (Xantec, Cat #PAGHC200M) was utilized in this experiment with HBS-EP +0.01% BSA as running buffer. Antibodies were diluted to 1 μg/mL in running buffer and captured to a single flow cell on the chip surface. Each species of LEPR-ECD was diluted to 1000 nM in running buffer followed by 2-fold serial dilution. Each ligand concentration was injected over all flow cells at 100 L/min for 150 seconds followed by a 600 second dissociation phase. Regeneration was performed by injecting 10 mM glycine pH1.5 for 30 seconds at 10 μL/min. Data were analyzed in Biacore T200 Evaluation Software 3.1 by flow-cell 1 reference subtraction along with 0 nM blank subtraction. Data were fit globally using a “1:1 Binding” binding model to determine the on-rate (kₐ) and off-rate (kd) for each ligand. The affinity (KD) was calculated from the binding kinetics according to the relationship KD=kₐ/kd. Data reported as mean±standard deviation of experimental replicates.

In assay [5] the target is T5, human LEPR, full length, on HEK293-STAT3Luc-hLepR1 cells (Homo sapiens, UniProt P48357 22-1165).
T5 construct: also called human LEPR on live cell surface
T5 sequence: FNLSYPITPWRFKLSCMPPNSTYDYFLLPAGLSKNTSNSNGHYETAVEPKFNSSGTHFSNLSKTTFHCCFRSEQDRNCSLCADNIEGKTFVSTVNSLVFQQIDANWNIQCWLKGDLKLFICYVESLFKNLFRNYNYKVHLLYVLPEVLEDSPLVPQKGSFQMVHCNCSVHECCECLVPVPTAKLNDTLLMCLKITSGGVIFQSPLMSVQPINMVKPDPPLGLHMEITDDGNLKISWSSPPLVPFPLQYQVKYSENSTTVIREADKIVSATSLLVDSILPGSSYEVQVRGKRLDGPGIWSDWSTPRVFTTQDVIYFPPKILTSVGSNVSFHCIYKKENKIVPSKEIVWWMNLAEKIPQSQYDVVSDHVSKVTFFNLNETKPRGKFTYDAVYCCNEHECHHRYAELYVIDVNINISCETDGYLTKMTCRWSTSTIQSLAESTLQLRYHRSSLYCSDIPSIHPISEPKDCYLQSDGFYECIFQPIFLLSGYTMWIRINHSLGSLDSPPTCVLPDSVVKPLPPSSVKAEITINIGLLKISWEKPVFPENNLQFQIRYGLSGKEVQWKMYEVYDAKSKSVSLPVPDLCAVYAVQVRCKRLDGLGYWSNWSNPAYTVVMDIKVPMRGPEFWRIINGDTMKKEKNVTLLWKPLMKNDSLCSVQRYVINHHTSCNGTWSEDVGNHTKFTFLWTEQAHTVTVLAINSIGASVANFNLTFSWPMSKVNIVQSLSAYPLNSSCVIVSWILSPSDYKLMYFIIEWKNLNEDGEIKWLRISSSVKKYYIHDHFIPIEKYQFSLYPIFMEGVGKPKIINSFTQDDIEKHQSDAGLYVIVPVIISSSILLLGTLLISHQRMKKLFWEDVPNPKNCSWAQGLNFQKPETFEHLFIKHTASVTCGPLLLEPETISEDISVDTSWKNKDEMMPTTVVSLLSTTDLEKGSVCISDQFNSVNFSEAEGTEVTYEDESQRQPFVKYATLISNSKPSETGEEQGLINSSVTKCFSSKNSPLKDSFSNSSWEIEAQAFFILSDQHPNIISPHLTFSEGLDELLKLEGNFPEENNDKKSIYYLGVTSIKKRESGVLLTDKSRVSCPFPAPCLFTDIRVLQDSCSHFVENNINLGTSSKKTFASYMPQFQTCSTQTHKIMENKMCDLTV
The assay can be described thus: flow cytometry on live HEK293-STAT3Luc-hLepR1 cells, AF647 anti-human IgG; average of 4 runs, SD 1.7.
Description: (§5) Cells were incubated in blocking buffer for 10 mins at room temperature. After one rinse with PBS, cells were transferred to U-bottom 96-well plate at 200 μL and 0.2˜0.26^e6 cells/well. […] Cells were then incubated with 30 μL/well of antibodies diluted in flow buffer at 1000 nM as high dose followed by 9-point dose response including 5-fold dilutions not including 0 (totaling 9 concentrations for each Antibody) for 30 minutes at 4° C. in dark.

The target of assay [6] is T5, human LEPR, full length, on …. In words: flow cytometry on live HEK293-STAT3Luc-hLepR1 cells, AF647 anti-human IgG; average of 4 runs, SD 7.1.
Description: as §5
The target in assay [7] is T4, human LEPR-ECD-His. The assay can be described thus: SPR (Biacore T200), antibody captured on Protein A/G chip, His-tagged LEPR-ECD as analyte, 1:1 fit; mean n=3, SD 7.1E-9. For orientation: Surface plasmon resonance follows binding to a sensor surface in real time, without labels.
Description: as §4

Positions count from the first letter of the chain named.

T3 sequence (P08637 17-208): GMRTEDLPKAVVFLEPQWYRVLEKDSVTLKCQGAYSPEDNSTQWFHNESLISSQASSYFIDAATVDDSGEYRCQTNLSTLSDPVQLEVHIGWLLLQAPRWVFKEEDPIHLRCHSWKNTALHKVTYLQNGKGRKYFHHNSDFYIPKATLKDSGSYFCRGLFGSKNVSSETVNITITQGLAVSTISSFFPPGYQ

B1: Antibody A (antibody, human IgG1, kappa, L234A L235A)
heavy: EVQLLESGGGLVQPGGSLRLSCAASGFTFSSFAMSWVRQAPGKGLEWVSAISGSGGSTYSADSVRGRFTISRDNSKNTLYLQMNSLRAEDTAVYYCAKDQGDWDFLFDYWGQGTLVTVSSASTKGPSVFPLAPSSKSTSGGTAALGCLVKDYFPEPVTVSWNSGALTSGVHTFPAVLQSSGLYSLSSVVTVPSSSLGTQTYICNVNHKPSNTKVDKRVEPKSCDKTHTCPPCPAPEAAGGPSVFLFPPKPKDTLYITREPEVTCVVVSVSHEDPEVKFNWYVDGVEVHNAKTKPREEQYNSTYRVVSVLTVLHQDWLNGKEYKCKVSNKALPAPIEKTISKAKGQPREPQVYTLPPSREEMTKNQVSLTCLVKGFYPSDIAVEWESNGQPENNYKTTPPVLDSDGSFFLYSKLTVDKSRWQQGNVFSCSVMHEALHNHYTQKSLSLSPGK
light: DIQMTQSPSFLSASVGDRVTITCRASQGISSSLAWYQQKPGKAPKLLIYTASTLQSGVPSRFSGSGSGTEFTLTISSLQPEDFATYYCQQLIYYPFTFGQGTKVEIKRTVAAPSVFIFPPSDEQLKSGTASVVCLLNNFYPREAKVQWKVDNALQSGNSQESVTEQDSKDSTYSLSSTLTLSKADYEKHKVYACEVTHQGLSSPVTKSFNRGEC
notes: IgG1 mAb
Take B1: the binding result in assay [1], in assay [2] and in assay [3] was “no binding (tested: receptor ECD tested up to 10 µM)” throughout. In the assay with human LEPR-ECD-His [4], this molecule came in with a dissociation constant Kd of 20 nM. Further, the EC50 in assay [5] stood at 2.45 nM.

B2: Antibody B (antibody, human IgG1, kappa, L234A L235A, V domains shown)
VH: EVQLLESGGGLVQPGGSLRLSCAASGFTFSSFAMSWVRQAPGKGLEWVSAISGSGGSTYSADSVRGRFTISRDNSKNTLYLQMNSLRAEDTAVYYCAKDQGDWDFLFDYWGQGTLVTVSS
VL: DIQMTQSPSFLSASVGDRVTITCRVSQGISSSLAWYQQKPGKAPKLLIYTASTLQSGVPSRFSGSGSGTEFTLTISSLQPEDFATYYCQQLNYYPFTFGQGTKVEIKR
With B2, the 50% effective concentration (EC50) in assay [6] is 13.6 nM.

B3: Antibody C (antibody, human IgG1, kappa, L234A L235A, V domains shown)
VH: B2 VH
VL: B2 VL with V25A, T97S
With B3, the Kd with human LEPR-ECD-His [7] came to 26 nM.
